Laboratory results as given in paper PMC4340663.

Experiments:
[1] = target: KNH1144 SOSIP gp140 trimer with the hexaarginine (R6) mutation (HIV-1 subtype A isolate KNH1144); test: native gel or EMSA
[2] = target: KNH1144 SOSIP gp140 trimer with the hexaarginine (R6) mutation (HIV-1 subtype A isolate KNH1144); test: negative-stain electron microscopy

| Substance | stoichiometry N [1] | stoichiometry N (molecules per trimer) [1] | stoichiometry N (molecules per trimer) [2] |
| --- | --- | --- | --- |
| KNH1144 SOSIP gp140 trimer with the hexaarginine (R6) mutation (complex) | 3 | – | – |
| four-domain soluble CD4 (domain or fragment) | – | 3 | 3 |
| two-domain soluble CD4 (domain or fragment) | – | 3 | – |
